Assay results: PMC8580825, “Scaffolding protein CcmM directs multiprotein phase separation in β-carboxysome biogenesis” (Nature Structural & Molecular Biology, 2021)
Changes are numbered by the printed parent chain.

B1: EGFPC2_(17) (peptide)
chain: GWLAPEQQQRIYRGNAS
notes: the last 17 residues of CcaA, Synechococcus elongatus PCC 7942; residues 1-255 of CcaA replaced by EGFP-GSGGS; EGFP amplified from pEF-gfp (Addgene); source: E. coli BL21 (DE3), purified (Ni-NTA, H6Ub cleaved, SEC); not shown: EGFP with GSGGS linker, N-terminal, kept; His6-ubiquitin, N-terminal, cleaved
B2: SeM58-K62D (natural protein, Synechococcus elongatus PCC 7942, UniProt Q03513 1-539, looked up)
chain: MPSPTTVPVATAGRLAEPYIDPAAQVHAIASIIGDVRIAAGVRVAAGVSIRADEGAPFQVGDESILQEGAVIHGLEYGRVLGDDQADYSVWIGQRVAITHKALIHGPAYLGDDCFVGFRSTVFNARVGAGSVIMMHALVQDVEIPPGRYVPSGAIITTQQQADRLPEVRPEDREFARHIIGSPPVIVRSTPAATADFHSTPTPSPLRPSSSEATTVSAYNGQGRLSSEVITQVRSLLNQGYRIGTEHADKRRFRTSSWQPCAPIQSTNERQVLSELENCLSEHEGEYVRLLGIDTNTRSRVFEALIQRPDGSVPESLGSQPVAVASGGGRQSSYASVSGNLSAEVVNKVRNLLAQGYRIGTEHADKRRFRTSSWQSCAPIQSSNERQVLAELENCLSEHEGEYVRLLGIDTASRSRVFEALIQDPQGPVGSAKAAAAPVSSATPSSHSYTSNGSSSSDVAGQVRGLLAQGYRISAEVADKRRFQTSSWQSLPALSGQSEATVLPALESILQEHKGKYVRLIGIDPAARRRVAELLIQKP
notes: CcmM (M58), Synechococcus elongatus PCC 7942, point mutant in the γCAL domain; source: E. coli BL21 (DE3), purified as wild-type M58; not shown: His6-ubiquitin, N-terminal, cleaved
B3: SeM58-E76K (natural protein, Synechococcus elongatus PCC 7942, UniProt Q03513 1-539, looked up)
chain: B2 chain with D62K, E76K
notes: as for B2
B4: SeM58-R79D (natural protein, Synechococcus elongatus PCC 7942, UniProt Q03513 1-539, looked up)
chain: B2 chain with D62K, R79D
notes: as for B2
B5: SeM58-R95D (natural protein, Synechococcus elongatus PCC 7942, UniProt Q03513 1-539, looked up)
chain: B2 chain with D62K, R95D
notes: as for B2
B6: SeM58-D112K (natural protein, Synechococcus elongatus PCC 7942, UniProt Q03513 1-539, looked up)
chain: B2 chain with D62K, D112K
notes: as for B2
B7: SeM58-R126D (natural protein, Synechococcus elongatus PCC 7942, UniProt Q03513 1-539, looked up)
chain: B2 chain with D62K, R126D
notes: as for B2
B8: SeM58-E246K (natural protein, Synechococcus elongatus PCC 7942, UniProt Q03513 1-539, looked up)
chain: B2 chain with D62K, E246K
notes: CcmM (M58), Synechococcus elongatus PCC 7942, point mutant in SSUL1; source: E. coli BL21 (DE3), purified as wild-type M58; not shown: His6-ubiquitin, N-terminal, cleaved
B9: SeM58-D249K (natural protein, Synechococcus elongatus PCC 7942, UniProt Q03513 1-539, looked up)
chain: B2 chain with D62K, D249K
notes: as for B8
B10: SeM58-E286K (natural protein, Synechococcus elongatus PCC 7942, UniProt Q03513 1-539, looked up)
chain: B2 chain with D62K, E286K
notes: as for B8
B11: SeM58-D294K (natural protein, Synechococcus elongatus PCC 7942, UniProt Q03513 1-539, looked up)
chain: B2 chain with D62K, D294K
notes: as for B8
B12: SeM58-E303K (natural protein, Synechococcus elongatus PCC 7942, UniProt Q03513 1-539, looked up)
chain: B2 chain with D62K, E303K
notes: as for B8
B13: γCAL domain of M58 (residues 1-198) (domain or fragment, Synechococcus elongatus PCC 7942, UniProt Q03513 1-198, looked up)
chain: MPSPTTVPVATAGRLAEPYIDPAAQVHAIASIIGDVRIAAGVRVAAGVSIRADEGAPFQVGKESILQEGAVIHGLEYGRVLGDDQADYSVWIGQRVAITHKALIHGPAYLGDDCFVGFRSTVFNARVGAGSVIMMHALVQDVEIPPGRYVPSGAIITTQQQADRLPEVRPEDREFARHIIGSPPVIVRSTPAATADFH
notes: also called γCAL198; source: E. coli BL21 (DE3), purified (Ni-NTA, H6Ub cleaved, SEC); not shown: His6-ubiquitin, N-terminal, cleaved
B14: γCAL domain of M58 (residues 1-181) (domain or fragment, Synechococcus elongatus PCC 7942, UniProt Q03513 1-181, looked up)
chain: MPSPTTVPVATAGRLAEPYIDPAAQVHAIASIIGDVRIAAGVRVAAGVSIRADEGAPFQVGKESILQEGAVIHGLEYGRVLGDDQADYSVWIGQRVAITHKALIHGPAYLGDDCFVGFRSTVFNARVGAGSVIMMHALVQDVEIPPGRYVPSGAIITTQQQADRLPEVRPEDREFARHIIG
notes: residues 1-15 disordered in the crystals; also called γCAL181; source: E. coli BL21 (DE3), purified (Ni-NTA, H6Ub cleaved, SEC); not shown: His6-ubiquitin, N-terminal, cleaved
B15: SeM58-E17K (natural protein, Synechococcus elongatus PCC 7942, UniProt Q03513 1-539, looked up)
chain: B2 chain with E17K, D62K
notes: as for B2
B16: SeM58-D21K (natural protein, Synechococcus elongatus PCC 7942, UniProt Q03513 1-539, looked up)
chain: B2 chain with D21K, D62K
notes: as for B2
B17: SeM58-D35K (natural protein, Synechococcus elongatus PCC 7942, UniProt Q03513 1-539, looked up)
chain: B2 chain with D35K, D62K
notes: as for B2
B18: SeM58-R37D (natural protein, Synechococcus elongatus PCC 7942, UniProt Q03513 1-539, looked up)
chain: B2 chain with R37D, D62K
notes: as for B2
B19: SeM58-R43D (natural protein, Synechococcus elongatus PCC 7942, UniProt Q03513 1-539, looked up)
chain: B2 chain with R43D, D62K
notes: as for B2

The molecules below were run against B13 (assay: ITC; EGFPC2_(17) (365 μM) in the syringe titrated into γCAL(1–198) (14 μM); 20 °C; 50 mM Tris pH 8.0/100 mM KCl/10 mM Mg(OAc)2; one-site binding model). Conditions: both partners purified.

| Molecule | Kd [nM] | stoichiometry N [per γCAL198 trimer] |
| --- | --- | --- |
| B1 | ~2000 | ~2.7 |

Molecular target: the molecule itself
Assay: SEC-MALS; 2 mg/ml protein; 50 mM Tris-HCl pH 8.0/150 mM KCl or 50 mM Tris-HCl pH 8.0/500 mM KCl/5 mM DTT; 25 °C; oligomeric state in solution
Conditions: not given

| Molecule | stoichiometry N |
| --- | --- |
| B2 | 3 |
| B3 | 3 |
| B4 | 3 |
| B5 | 3 |
| B6 | 3 |
| B7 | 3 |
| B8 | 3 |
| B9 | 3 |
| B10 | 3 |
| B11 | 3 |
| B12 | 3 |
| B13 | 3 |
| B14 | 3 |
| B15 | 3 |
| B16 | 3 |
| B17 | 3 |
| B18 | 3 |
| B19 | 3 |

The molecules below were run against SeM58-R367D (Synechococcus elongatus PCC 7942) (UniProt Q03513) in the same assay as above. Conditions: not given.

| Molecule | stoichiometry N |
| --- | --- |
| SeM58-R367D (from UniProt Q03513 1-539) (natural protein) | 3 |

These molecules were tested against SeM58-R298D (Synechococcus elongatus PCC 7942) (UniProt Q03513) in the same assay as above. Conditions: not given.

| Molecule | stoichiometry N |
| --- | --- |
| SeM58-R298D (from UniProt Q03513 1-539) (natural protein) | 3 |

Each molecule was assayed against SeM58-R481D (Synechococcus elongatus PCC 7942) (UniProt Q03513) in the same assay as above. Conditions: not given.

| Molecule | stoichiometry N |
| --- | --- |
| SeM58-R481D (from UniProt Q03513 1-539) (natural protein) | 3 |

These molecules were tested against SeM58-R252D (Synechococcus elongatus PCC 7942) (UniProt Q03513) in the same assay as above. Conditions: not given.

| Molecule | stoichiometry N |
| --- | --- |
| SeM58-R252D (from UniProt Q03513 1-539) (natural protein) | 3 |

These molecules were tested against SeM58-R251D (Synechococcus elongatus PCC 7942) (UniProt Q03513) in the same assay as above. Conditions: not given.

| Molecule | stoichiometry N |
| --- | --- |
| SeM58-R251D (from UniProt Q03513 1-539) (natural protein) | 3 |
